{"source": "patent US20230380451A1", "about": "“MEANS AND METHODS TO DETOXIFY MYCOTOXINS” (priority 2020, published 2023)", "molecules": {"B1": {"name": "Akr II: artificial amino acid sequence, variant of a wild type aldo-keto reductase (protein)", "chain": "MRTTEIAQGLKVSNLCIGAGPLGGMPTAFGYDVSEERGIATVQAVFDSPINFMDTSSEYGGSEARIGKVIREGLMPKGFVISSKADAEGEGVGRRGDFSAKQVRASFELSLERLGLTHLDVYFLHDPEKFPFEQVMARGGAMEELLRLKDEGLVGLVGVAGGDVLEMARYVDTGSLDILLNYGRYTLLDRSADSLITKVSDAGMAFLNAGPYASGLLAAPRGGSAWYQYAPPDATALQAVDQLHELCESFDVSLRSVALQFSMRDPRITSTVVGLSRPERVRALLDDEAAEIPAELWEQLPAPLNGDIVLPG", "modifications": "ArkII"}, "B2": {"name": "Akr III: artificial amino acid sequence, variant of a wild type aldo-keto reductase (protein)", "chain": "B1 chain with L74R, L187I, G312R", "modifications": "ArkIII"}, "B3": {"name": "Akr I: artificial amino acid sequence, variant of a wild type aldo-keto reductase (protein)", "chain": "MRTTEISQGLKVSNLCIGAGPLGGMPTAFGYDVSEERGIATVQAVFDSPINFMDTSSEYGDSEVRIGKVIREGRMPKGFVIATKADAEGDGTARRGDFSAKQVRASFELSLERLGLTHIDVYFLHDPEKFPFEHVMARGGAMEELLRLKDEGLVGLVGVAGGDVVEMARYVDTGNLDILLNYGRYTLLDRSADSLIDKASDAGMAFLNAGPYASGLLAAPRGGSAWYQYAPPNADALQAVDQLHELCESFDVSLRSVALQFSMRDPRITSTVVGLSRPERVRALLDDAAAEIPAELWDQLPAPLNLPWNSLA", "modifications": "ArkI"}}, "key": {"[1]": {"assay_type": "biochemical", "conditions": "for temperature of maximum DON degradation activity (temperature optimum): 14.9° C. to 55.7° C. tested; for pH of maximum DON degradation activity (pH optimum): pH 2 to pH 10 tested, 30° C.", "method": "(§1) To determine the transformation of DON to epi-THS by Akr I-III, described herein, the following assay was performed. An assay buffer was prepared containing 40 ppm DON, 1 mM NADPH in Teorell Stenhagen (TS) buffer, pH 6.0 (Östling and Virtama, Acta Physiologica Scandinavica, 1946, 11:4, 289-293). Tubes containing the assay buffer were transferred in a heating block at 30° C. The reaction was started by addition of Akr I-III to a final concentration of 200 nM in a final reaction volume of 200 μL. Samples were taken before reaction start, and 2, 5, 10, 15 and 20 min after reaction start. DON transformation reactions in these samples were stopped by mixing with absolute methanol at a 1:2 ratio, followed by a 1:100 dilution with 40% methanol. The concentrations of DON and epi-THS in the samples were determined with liquid chromatography-mass spectrometry (LC-MS) on a Sciex 5500 triple quadrupole mass spectrometer coupled to Agilent 1290 series UHPLC system, using the following MS parameters: Acquisition duration: 4 min; Scan Type: MRM (MRM); Polarity: Negative; Ion Source: Turbo Spray.\nFor LC, eluent A was 5% methanol, 94.9% water (ultrapure), 0.1% acetic acid, and eluent B was 99.9% methanol, 0.1% acetic acid, using a Phenomenex Kinetex 2.6 μm biphenyl 150×2.1 mm column, an injection volume of 1 μL and the protocol shown in Table 3.\nBy applying the DON transformation assay basically as described in Example 3, but at pH values ranging from pH 2 to pH 10, the pH optima for DON degradation of Akr I-III (SEQ ID NOs: 1-3) were determined. Akr I and Akr II reached maximum activities at pH 6.0, Akr III at pH 6.5.\nBy applying the DON transformation assay basically as described in Example 3, but at different temperatures ranging from 14.9° C. to 55.7° C., the temperature optima for the DON degradation activities of Akr I-III were determined. Akr I maximum activity was shown at approximately 35° C., Akr II at approximately 31° C., and Akr III at temperatures from approximately 28° C. to 33° C. (see FIG. 4). […] For Akr I even at temperatures below 20° C."}, "[2]": {"test": "Kinetic parameters of DON transformation (Michaelis-Menten fit)", "assay_type": "biochemical", "conditions": "200 nM enzyme, TS buffer pH 6.0, 1 mM NADPH", "method": "as §1\nKinetic parameters were determined by performing the DON transformation assay as described in Example 3. Akr I-III were used at a final concentration of 200 nM in Teorell Stenhagen (TS) buffer, pH 6.0 (Ostling and Virtama, Acta Physiologica Scandinavica, 1946, 11:4, 289-293) further containing 1 mM NADPH and DON at a concentration of either 3.38 μM, 33.78 μM, 135.14 μM, 270.27 μM or 1182.43 μM. The observed reaction rates and the corresponding DON concentrations were fitted to the Michaelis-Menten function used to describe enzyme kinetics. The fitting was done using the program SigmaPlot (Systat Software Inc.) to calculate the maximum DON transformation rate of Akr I-III in the assay (Vmax), the Michaelis constant (KM) and the turnover number (kcat). […]."}}, "note": "Substitutions are numbered along the chain they refer to. Like-named read-outs stand apart in the source and are kept apart here."}
{"molecule": "B1", "values": [{"measurement": "temperature of maximum DON degradation activity (temperature optimum)", "setting": "[1]", "result": "approximately 31 °C"}, {"measurement": "pH of maximum DON degradation activity (pH optimum)", "setting": "[1]", "result": 6.0}]}
{"molecule": "B2", "values": [{"measurement": "pH of maximum DON degradation activity (pH optimum)", "setting": "[1]", "result": 6.5}]}
{"molecule": "B3", "values": [{"measurement": "Vmax (maximum DON transformation rate)", "setting": "[2]", "result": 8471, "unit": "U/mg"}, {"measurement": "kcat (turnover number)", "setting": "[2]", "result": 5.08, "unit": "s⁻¹"}, {"measurement": "Km", "setting": "[2]; substrate DON, read-out: KM (Michaelis constant)", "result": 143, "unit": "µM"}, {"measurement": "temperature of maximum DON degradation activity (temperature optimum)", "setting": "[1]", "result": "approximately 35 °C"}, {"measurement": "DON degradation", "setting": "[1]; 14.9° C., after 20 min of incubation", "result": "complete DON degradation"}, {"measurement": "pH of maximum DON degradation activity (pH optimum)", "setting": "[1]", "result": 6.0}, {"measurement": "DON degradation", "setting": "[1]; pH 4.0, after 30 min", "result": "complete degradation"}]}
